Literature values as cited in paper PMC3022668.

Biological target: streptavidin (Streptomyces avidinii) (UniProt P22629)

Kd: 2.5 nM
Substance: streptavidin-binding peptide (SBP)
